This is an account of results in PMC9371724 (2022).

Common to all, as to experiment: activation reporter or marker
The target of test [1] is T1, HA69 peptide on HLA DQB1*06:02/DQA1*01:02 (DQ0602) (human).
T1 peptide: AMERNAGSGIIISDT

The target in test [2] is T2, hemagglutinin (HA) of pandemic 2009 H1N1 (pHA, HA69) peptide on HLA-DQA1*01:02 / HLA-DQB1*06:02 (human).
T2 peptide: AMERNAGSGIIISDT

Test [3] concerns the target T3, hemagglutinin (HA) of pandemic 2009 H1N1 (pHA, HA69) peptide on HLA-DQA1*01:02 / HLA-DQB1*06:02 (human).
T3 peptide: AMERNAGSGIIISDT

Like-named read-outs stand apart in the source and are kept apart here.

B1: TCR43 (TCR)
alpha TRAV13-1 TRAJ43 CDR3: CAASDNDMRF
beta TRBV4-2 TRBJ1-2 CDR3: CASSQETQGRNYGYTF
On to B1, for which the binding result in test [1] and in test [2] was “recognises” each time.

B2: TCR CALSPDSWGKLQF / CASSTRAPTRTGEKLFF (TCR)
alpha TRAV6 TRAJ24 CDR3: CALSPDSWGKLQF
beta TRBV7-9 TRBJ1-4 CDR3: CASSTRAPTRTGEKLFF
B2: the binding result in test [3] is listed as “no recognition”.

B3: TCR275 (TCR)
alpha TRAV13-1 TRAJ43 CDR3: CAANNNDMRF
beta TRBV4-2 TRBJ1-2 CDR3: CASSQETQGRNYGYTF
As to B3, the binding result in test [1] and in test [2] was “recognises” each time.

B4: TCR CAGSPSQGGSEKLVF / CSARPLGTSGRDEQFF (TCR)
alpha TRAV35 TRAJ57 CDR3: CAGSPSQGGSEKLVF
beta TRBV20-1 TRBJ2-1 CDR3: CSARPLGTSGRDEQFF
As for B4, the binding result in test [1] and in test [3] was “no recognition” each time.
